Reference: article doi:10.1101/767376, “Strategies to improve scFvs as crystallization chaperones suggested by analysis of a complex with the human PHD-bromodomain SP140” (bioRxiv, 2019)

Biological target: T1, SP140 PHD-bromodomain (construct SP140A-c055) (Homo sapiens, UniProt Q13342)
T1 construct: SP140, human, nuclear leukocyte-specific protein, amino acids 688-862 (PHD and bromodomain); Biotinylated recombinant SP140 was the target in the phage selection; Details are in supplementary methods S1; source: recombinant, purified
Assay: SPR; format and conditions in Supplementary Method S3 and Figure S1 (not shown)

T1 sequence (Q13342 688-862): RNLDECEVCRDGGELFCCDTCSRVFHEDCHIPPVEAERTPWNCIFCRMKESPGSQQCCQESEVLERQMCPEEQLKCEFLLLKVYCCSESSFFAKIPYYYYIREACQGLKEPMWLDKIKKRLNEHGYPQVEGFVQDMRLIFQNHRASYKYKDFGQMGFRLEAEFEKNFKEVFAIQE

B1: G-SP140-8 scFv (construct YYSP140A-c009) (scFv, V domains shown)
VH: EVQLLESGGGLVQPGGSLRLSCAASGFTFYGSGMGWVRQAPGKGLEWVSSIYSGSGSTYYADSVKGRFTISRDNSKNTLYLQMNSLRAEDTAVYYCARTSIYYYYMDYWGQGTLVTVSS
VL: DIQMTQSPSSLSASVGDRVTITCRASQSISSYLNWYQQKPGKAPKLLIYAASSLQSGVPSRFSGSGSGTDFTLTISSLQPEDFATYYCQQSSSLFTFGQGTKLEIK
notes: scFv (VH and VL joined by a linker) selected by phage display from the human synthetic library SciLifeLib; see Supplementary Method S3; not shown: MBP, N-terminal, cleaved; His6, N-terminal, cleaved
**Q.** Which Kd does the source give for B1 here?
**A.** ~6 nM
